Laboratory results as given in patent US20210388097A1 (SORRENTO THERAPEUTICS, published 2021).

Key:
[1] = biological target: T1, his-tagged mouse BCMA protein (ACROBiosystems, catalog # BCA-M52H3) (mouse, UniProt O88472 1-49); assay: SPR (Biacore T200), antibody captured on anti-human Fc chip, his-tagged mouse BCMA as analyte
T1 construct: Bought protein; not shown: his tag
T1 chain (looked up): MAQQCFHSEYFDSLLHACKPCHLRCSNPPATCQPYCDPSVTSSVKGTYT
Procedure: (§1) Binding kinetics of anti-BCMA antibodies with his-tagged human BCMA protein (ACROBiosystems, catalog # BCA-H522y-100 ug, UniProt Q02223-1, SEQ ID NO:92) was measured using surface plasmon resonance (SPR). Kinetic interactions between the antibodies and his-tagged BCMA proteins were measured at 25° C. using Biacore T200 surface plasmon resonance (GE Healthcare). Anti-human fragment crystallizable region (Fc region) antibody was immobilized on a CM5 sensor chip to approximately 8000 resonance units (RU) using standard N-hydroxysuccinimide/N-Ethyl-N′-(3-dimethylaminopropyl) carbodiimide hydrochloride (NHS/EDC) coupling methodology. The anti-BCMA antibody (2 μg/mL) was captured for 60 seconds at a flow rate of 10 μL/minute. The his-tagged BCMA protein was run at […] different dilutions of 3.12, 6.25, 12.5, 25, 50, 100 and 200 nM, in a running buffer of 0.01 M HEPES pH 7.4, 0.15 M NaCl, 3 mM EDTA, 0.05% v/v Surfactant P20 (HBS-EP+). The 25 nM BCMA protein run was measured two times. All measurements were conducted in HBS-EP+ buffer with a flow rate of 30 μL/minute. A 1:1 (Langmuir) binding model was used to fit the data. […]
(§2) Cross reactivity of two of the anti-BCMA antibodies, BCA7-2C5 and BCA7-2E1, with his-tagged human, cynomolgus or mouse BCMA protein were analyzed by SPR in the manner as described above. […]

[2] = biological target: T2, his-tagged cynomolgus BCMA protein (ACROBiosystems, catalog # BCA-052H7) (cynomolgus, UniProt A0A2K5UD97 1-53); assay: SPR (Biacore T200), antibody captured on anti-human Fc chip, his-tagged cynomolgus BCMA as analyte
T2 construct: Bought protein; also called cyno BCMA; not shown: his tag
T2 sequence (A0A2K5UD97 entry or part of it): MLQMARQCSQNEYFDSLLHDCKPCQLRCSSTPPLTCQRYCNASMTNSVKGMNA
Procedure: as §1, §2

[3] = biological target: T3, his-tagged human BCMA protein (ACROBiosystems, catalog # BCA-H522y-100 ug) (human, UniProt Q02223 1-54); assay: SPR (Biacore T200), antibody captured on anti-human Fc, his-tagged human BCMA as analyte; fit with ka1/kd1/ka2/kd2 (model not named)
T3 construct: limits of the bought construct are not otherwise stated; also called recombinant his-tagged human BCMA; not shown: his tag of the bought protein
T3 sequence: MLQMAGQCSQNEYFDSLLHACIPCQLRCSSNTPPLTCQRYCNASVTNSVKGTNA
Procedure: Binding kinetics of anti-BCMA antibodies with his-tagged human BCMA protein (ACROBiosystems, catalog # BCA-H522y-100 ug, UniProt Q02223-1, SEQ ID NO:92) was measured using surface plasmon resonance (SPR). Kinetic interactions between the antibodies and his-tagged BCMA proteins were measured at 25° C. using Biacore T200 surface plasmon resonance (GE Healthcare). Anti-human fragment crystallizable region (Fc region) antibody was immobilized on a CM5 sensor chip to approximately 8000 resonance units (RU) using standard N-hydroxysuccinimide/N-Ethyl-N′-(3-dimethylaminopropyl) carbodiimide hydrochloride (NHS/EDC) coupling methodology. The anti-BCMA antibody (2 μg/mL) was captured for 60 seconds at a flow rate of 10 μL/minute. The his-tagged BCMA protein was run at […] different dilutions of 3.12, 6.25, 12.5, 25, 50, 100 and 200 nM, in a running buffer of 0.01 M HEPES pH 7.4, 0.15 M NaCl, 3 mM EDTA, 0.05% v/v Surfactant P20 (HBS-EP+). The 25 nM BCMA protein run was measured two times. All measurements were conducted in HBS-EP+ buffer with a flow rate of 30 μL/minute. […] The SPR sensorgrams of anti-BCMA antibodies BCA7, GSK J6M0, BC4C9 and BC5C4 are shown in FIGS. 1, 2, 3 and 4, respectively, and their corresponding binding kinetics are listed in Table 3.
Binding kinetics of optimized anti-BCMA antibodies BCA7-2C5, BCA7-2D11, BCA7-2G2, BCA7-2E1, BCA7-2D8 and BCA7-2E8, with his-tagged human BCMA protein (ACROBiosystems, catalog # BCA-H522y-100 ug), were analyzed in the manner as described above.

[4] = biological target: T4, Wild type human BCMA protein-mouse Fc (human); assay: bio-layer interferometry, antibody (100 nM) loaded on AR2G sensor, BCMA-mouse Fc in solution
T4 construct: also called wild type human BCMA-mouse Fc; wild type BCMA protein
T4 chain: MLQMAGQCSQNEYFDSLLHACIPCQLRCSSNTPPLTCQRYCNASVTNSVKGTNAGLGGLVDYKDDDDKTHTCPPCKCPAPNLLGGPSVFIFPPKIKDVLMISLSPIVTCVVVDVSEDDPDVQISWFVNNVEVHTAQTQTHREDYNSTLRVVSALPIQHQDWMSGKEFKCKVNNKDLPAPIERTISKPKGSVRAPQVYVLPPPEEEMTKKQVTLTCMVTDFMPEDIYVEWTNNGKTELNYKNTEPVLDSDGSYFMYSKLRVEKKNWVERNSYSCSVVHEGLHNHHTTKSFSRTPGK
Procedure: (§3) The results of the protein-protein binding assays described in Example 8 were used to design an epitope mapping assay using bio-layer interferometry. Various anti-BCMA antibodies (2C5, 2E1, 4C9, 6G8, Bluebird C11D5, GSK J6M0, or isotype control) (100 nM) were loaded onto AR2G sensors and reacted with buffer or one of three types of human BCMA proteins including: including: wild type human BCMA-mouse Fc (SEQ ID NO:5), mutant-1 human BCMA-mouse Fc (double mutation 17G-18G; SEQ ID NO:6), or mutant-2 human BCMA-mouse Fc (mutation del32-35G; SEQ ID NO:7).

[5] = biological target: T5, Mutant-2 human BCMA protein-mouse Fc (human); assay: as above
T5 construct: also called mutant-2 human BCMA-mouse Fc (del32-35G); mutant-2 BCMA protein
T5 chain: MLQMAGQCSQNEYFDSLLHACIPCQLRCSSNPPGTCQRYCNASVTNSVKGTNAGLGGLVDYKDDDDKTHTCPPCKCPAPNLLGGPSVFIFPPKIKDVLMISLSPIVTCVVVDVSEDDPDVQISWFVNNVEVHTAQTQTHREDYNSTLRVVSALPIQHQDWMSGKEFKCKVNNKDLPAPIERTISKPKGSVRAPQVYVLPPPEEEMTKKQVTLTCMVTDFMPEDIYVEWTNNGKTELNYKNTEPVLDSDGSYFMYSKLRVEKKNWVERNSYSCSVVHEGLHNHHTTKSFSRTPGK
Procedure: as §3

[6] = biological target: T3, his-tagged human BCMA protein …; assay: SPR (Biacore T200), antibody captured on anti-human Fc chip, his-tagged human BCMA as analyte
Procedure: as §1, §2

[7] = biological target: T3, his-tagged human BCMA protein …; assay: SPR (Biacore T200, 25 C), antibody captured on anti-human Fc, his-tagged human BCMA as analyte, 1:1 binding model
Procedure: Binding kinetics of anti-BCMA antibodies with his-tagged human BCMA protein (ACROBiosystems, catalog # BCA-H522y-100 ug, UniProt Q02223-1, SEQ ID NO:92) was measured using surface plasmon resonance (SPR). Kinetic interactions between the antibodies and his-tagged BCMA proteins were measured at 25° C. using Biacore T200 surface plasmon resonance (GE Healthcare). Anti-human fragment crystallizable region (Fc region) antibody was immobilized on a CM5 sensor chip to approximately 8000 resonance units (RU) using standard N-hydroxysuccinimide/N-Ethyl-N′-(3-dimethylaminopropyl) carbodiimide hydrochloride (NHS/EDC) coupling methodology. The anti-BCMA antibody (2 μg/mL) was captured for 60 seconds at a flow rate of 10 μL/minute. The his-tagged BCMA protein was run at six different dilutions of 3.12, 6.25, 12.5, 25, 50, 100 and 200 nM, in a running buffer of 0.01 M HEPES pH 7.4, 0.15 M NaCl, 3 mM EDTA, 0.05% v/v Surfactant P20 (HBS-EP+). The 25 nM BCMA protein run was measured two times. All measurements were conducted in HBS-EP+ buffer with a flow rate of 30 μL/minute. A 1:1 (Langmuir) binding model was used to fit the data. The SPR sensorgrams of anti-BCMA antibodies BCA7, GSK J6M0, BC4C9 and BC5C4 are shown in FIGS. 1, 2, 3 and 4, respectively, and their corresponding binding kinetics are listed in Table 3.

Binder	Kd [1] [nM]	Kd [2] [nM]	Kd [3] [nM]	ka1 [3] [M⁻¹ s⁻¹]	ka2 [3] [s⁻¹]	kd1 [3] [s⁻¹]	kd2 [3] [s⁻¹]	binding result [4]	binding result [5]	Kd [6] [nM]	Kd [7] [nM]	koff [7] [s⁻¹]	kon [7] [M⁻¹ s⁻¹]
BCA7-2E1 antibody (antibody, V domains shown, also called BCA-2E1) VH: EVQLVESGGGLVKPGGSLRLSCAASGFTSSTAWMSWVRQAPGKGLEWVGRIKSKSDGGTTDYAAPVKGRFTISRDDSKNTLFLQMNSLKTEDTAVYYCAKGGGTYGYWGQGTTVTVSS VL: QSALTQPASVSGSPGQSVTISCTGTSSDGGGHTYVSWYQQHPGKAPKLMIYDVSNRPSWVSNRFSGSKSGNTASLTISGLQAEDEADYYCGSYTSSGSYVFGTGTKLTVL	1000	174	20.4	2.51e+06	0.0018	0.151	0.000929	binds	binds	20.4			
BCA7-2D11 antibody (antibody, V domains shown) VH: EVQLVESGGGLVKPGGSLRLSCAASGFTSSTAWMSWVRQAPGKGLEWVGRIKSKSDGGTTDYAAPVKGRFTISRDDSKNTLFLQMNSLKTEDTAVYYCAKGGGTYGYWGQGTTVTVSS VL: SYELTQPASVSGSPGQSVTISCTGTSSVVGGHDYVSWYQQHPGKAPKLMIYDVSNRPSGVSNRFSGSKSGNTASLTISGLQAEDEADYYCGSYTSSGSYVFGTGTKVTVL			21.9	1.87e+06	0.00381	0.261	0.00071						
BCA7-2D8 antibody (antibody, V domains shown) VH: EVQLVESGGGLVKPGGSLRLSCAASGFTSSTAWMSWVRQAPGKGLEWVGRIKSKSDGGTTDYAAPVKGRFTISRDDSKNTLFLQMNSLKTEDTAVYYCAKGGGTYGYWGQGTTVTVSS VL: QSVLTQPASVSGSPGQSVTISCTGTSSSIGDSYYVSWYQQHPGKAPKLMIYDVSNRPSGVSNRFSGSKSGNTASLTISGLQAEDEADYYCGSYTSSGSYVFGTGTTLTVL			83.8	2.43e+06	0.0113	1.09	0.0026						
BCA7-2E8 antibody (antibody, V domains shown) VH: EVQLVESGGGLVKPGGSLRLSCAASGFTSSTAWMSWVRQAPGKGLEWVGRIKSKSDGGTTDYAAPVKGRFTISRDDSKNTLFLQMNSLKTEDTAVYYCAKGGGTYGYWGQGTTVTVSS VL: QSVLTQPASVSGSPGQSVTISCTGTSSDVGGYNYVSWYQQHPGKAPKLMIYDVSNRPSGVSNRFSGSKSGNTASLTISGLQAEDEADYYCGSLRSNGDYVFGTGTTLTVL			155	48700	0.0119	0.0202	0.00707						
BCA7-2G2 antibody (antibody, V domains shown) VH: EVQLVESGGGLVKPGGSLRLSCAASGFTSSTAWMSWVRQAPGKGLEWVGRIKSKSDGGTTDYAAPVKGRFTISRDDSKNTLFLQMNSLKTEDTAVYYCAKGGGTYGYWGQGTTVTVSS VL: QSVLTQPASVSGSPGQSVTISCTGTSSSVGGRQYVSWYQQHPGKAPKLMIYDVSNRPSGVSNRFSGSKSGNTASLTISGLQAEDEADYYCGSYTSSGSYVFGTGTKLTVL			53.7	32100	0.00143	0.00376	0.00121						
BC4C9 antibody (antibody, V domains shown) VH: EVQLVQSGAEVKKPGASVKVSCKAFGYTFTSYDINWVRQATGQGLEWMGWMNPNSGNTGYAQKFQGRVTMTRNTSISTAYMELSSLRSEDTAVYYCASGLGEWGQGTLVTVSS VL: QSVLTQPASVSGSPGQSVTISCTGTSSDVGGYNYVSWYQQHPGKAPKLMIYDVSKRPSGVSNRFSGSKSGNTASLTISGLQAEDEADYYCISYSSSSTFYVFGTGTKVTVL								binds	binds		27.3	0.000567	20800
BC5C4 antibody (antibody, V domains shown, also called CD5C4) VH: EVQLVESGGGLVQPGRSLRLSCAASGFTFDDYAMHWVRQAPGKGLEWVSGISWNSGSIGYADSVKGRFTISRDNAKNSLYLQMNSLRAEDTAVYYCATIDNVAFHSWGQGTLVTVSS VL: QSVLTQPPSASGSPGQSVTISCTGTSSDIGGYNYVSWYQQHPGKAPKLIIYEVSNRPSGVSDRFSGSKSGNTASLTISGLQAEDEADYYCSSYTDNGALVVFGGGTKLTVL											9.27	0.033	3.56e+06
